# Literature values, collected in article PMC6092819.
# Target: Kv1.3 (Homo sapiens) (UniProt P22001)
# Sequence of UniProt P22001 (P22001 whole entry): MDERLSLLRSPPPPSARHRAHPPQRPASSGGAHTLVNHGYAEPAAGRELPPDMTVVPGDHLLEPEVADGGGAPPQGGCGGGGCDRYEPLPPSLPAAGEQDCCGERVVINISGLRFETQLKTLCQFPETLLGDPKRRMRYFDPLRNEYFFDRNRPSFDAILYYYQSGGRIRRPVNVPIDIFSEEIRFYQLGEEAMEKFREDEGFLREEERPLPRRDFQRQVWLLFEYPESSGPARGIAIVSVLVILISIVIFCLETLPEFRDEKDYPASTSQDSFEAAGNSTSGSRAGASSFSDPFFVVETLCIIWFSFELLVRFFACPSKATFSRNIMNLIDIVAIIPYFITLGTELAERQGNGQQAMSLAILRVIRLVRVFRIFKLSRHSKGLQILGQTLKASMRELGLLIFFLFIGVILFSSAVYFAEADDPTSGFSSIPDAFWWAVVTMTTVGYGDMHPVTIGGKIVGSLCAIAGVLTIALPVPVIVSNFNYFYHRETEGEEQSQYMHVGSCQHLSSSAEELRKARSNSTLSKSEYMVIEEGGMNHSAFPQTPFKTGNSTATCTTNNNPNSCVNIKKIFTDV
substance,measurement,value
ShK (from UniProt P29187),Kd,0.01 nM
